Assay results taken from the RNAGym collection of RNA variant scans (doi:10.7554/elife.90254).

B1: OR4K15 (parent)
chain: GUUAACGGUCAUAGGCCAUGGAAACUAGGAGCACCAUUUCGCUGCCAGUGAAGAAAUGAACAAAGAAAAUCUGGGCCAGGCAGGCAUCAAAAGAAAUAGUCUUGCGCUCAACCAGAAAGUCUGUAAUCAUUUUAAGGGUA

Variants of: B1
Test: self-cleavage, relative activity (ratio to wild type); higher = more cleavage; in vitro, sequencing; the parent is a self-cleaving ribozyme
For A47G A59U, the self-cleavage was 1.56. Variant A47G A62U has a self-cleavage of 1.22. A47U A62G gave a self-cleavage of 0.82. For A47U A96G, the self-cleavage was 1.28. With G48C A51G the self-cleavage was 0.94. With A47G A67U the self-cleavage was 1.48. Variant C46U U103C has a self-cleavage of 1.41. In the case of A47U A114G, the self-cleavage is reported as 0.21. Work on A47U A78U yielded a self-cleavage of 0.25. In the case of G48A A95G, the self-cleavage is reported as 1.29. Work on A47U U102C yielded a self-cleavage of 1.92. For A47U A59G, the self-cleavage was 0.62. A47U G138A showed a self-cleavage of 1.61. A47G U122A gave a self-cleavage of 1.11. Work on A47G U122C yielded a self-cleavage of 0.62. With A47C A125G the self-cleavage was 0.42. For A47U A82U, the self-cleavage was 0.17. A47U A82C showed a self-cleavage of 0.21. In the case of C46U G74A, the self-cleavage is reported as 0.32. Variant A47G U100C has a self-cleavage of 1.85. A47G U49C gave a self-cleavage of 0.98. In the case of A47G U49A, the self-cleavage is reported as 1.06. Work on A47G A64U yielded a self-cleavage of 1.26. A47C A56G gave a self-cleavage of 1.35. A47U A89G gave a self-cleavage of 0.86. With A47U A89U the self-cleavage was 0.95. With A47U U57C the self-cleavage was 0.75. For A47C A64U, the self-cleavage was 1.56. In the case of A47G A60U, the self-cleavage is reported as 1.4. Work on A47G A117G yielded a self-cleavage of 1.32. A47G A56G showed a self-cleavage of 1.03. With C46U A118U the self-cleavage was 0.76. For A47C A92G, the self-cleavage was 0.95. Work on A47C A110C yielded a self-cleavage of 0.46. In the case of A47U C77A, the self-cleavage is reported as 0.69. G48U A96G gave a self-cleavage of 1.28. Work on C46U A89U yielded a self-cleavage of 1.71. A47C U131C gave a self-cleavage of 0.89. In the case of A47U A52G, the self-cleavage is reported as 0.81. In the case of A47U A52U, the self-cleavage is reported as 1.2. Work on C46U G138U yielded a self-cleavage of 1.93. Variant A47G G75U has a self-cleavage of 0.16. G48U A118G gave a self-cleavage of 1.08. Work on C46U U120C yielded a self-cleavage of 0.15. For A47C A55G, the self-cleavage was 1.43. With A47G A94C the self-cleavage was 1.1. Variant A47U G75A has a self-cleavage of 0.14. Variant A47U A98G has a self-cleavage of 0.16. A47U A98C showed a self-cleavage of 1.44. In the case of A47U A134G, the self-cleavage is reported as 1.24. Work on A47C A52G yielded a self-cleavage of 0.57. With A47G U70A the self-cleavage was 0.83. G48A U127A gave a self-cleavage of 2.28. With G48A A68G the self-cleavage was 1.7. A47U A125G gave a self-cleavage of 0.28. Work on C46U U132C yielded a self-cleavage of 1.97. A47G U120C showed a self-cleavage of 0.48. Work on G48A A90G yielded a self-cleavage of 0.76. For G48A A63G, the self-cleavage was 0.93. A47G A111U gave a self-cleavage of 0.12. U49A A51U showed a self-cleavage of 1.63. U49A A51C gave a self-cleavage of 0.3. Variant A47U A110C has a self-cleavage of 0.13. A47U A110G showed a self-cleavage of 0.05. Variant A47C A114G has a self-cleavage of 0.3. C46U A96G gave a self-cleavage of 2.13. Work on A47U U122A yielded a self-cleavage of 0.87. For A47C U72A, the self-cleavage was 0.37. G48A U102C showed a self-cleavage of 1.99. A47G G104A showed a self-cleavage of 0.05. With C46U G84A the self-cleavage was 1.72. For A47U A126G, the self-cleavage was 0.77. G48A A66U showed a self-cleavage of 1.33. Variant A47U A64G has a self-cleavage of 0.61. For A47G A92U, the self-cleavage was 1.18. A47G A92C gave a self-cleavage of 0.42. In the case of C46U A98G, the self-cleavage is reported as 0.74. In the case of A47U C101U, the self-cleavage is reported as 0.22. With G48U A94G the self-cleavage was 0.54. For A47U U108A, the self-cleavage was 0.01. In the case of A47U A60U, the self-cleavage is reported as 0.75. Variant A47U A60C has a self-cleavage of 0.14. Work on A47U A86G yielded a self-cleavage of 0.23. In the case of A47U G84U, the self-cleavage is reported as 0.25. For A47U G84A, the self-cleavage was 1.13. A47U G50A gave a self-cleavage of 0.26. For C46U U72A, the self-cleavage was 0.14. Work on G48U A91G yielded a self-cleavage of 1. A47G A140U showed a self-cleavage of 1.24. With A47U A51G the self-cleavage was 0.86. In the case of A47G A89G, the self-cleavage is reported as 1.1. For A47G A118U, the self-cleavage was 0.67. With C46U A111G the self-cleavage was 0.02. For A47G C81U, the self-cleavage was 0.25. For G48C U131C, the self-cleavage was 0.69. G48C A55G gave a self-cleavage of 1.64. A47C U97C gave a self-cleavage of 0.33. In the case of A47U A117U, the self-cleavage is reported as 0.71. A47U A117G gave a self-cleavage of 1.25. With A47C A96G the self-cleavage was 1.82. For A47G A91U, the self-cleavage was 0.76. With A47U U127C the self-cleavage was 0.59. A47U U127A gave a self-cleavage of 0.24. A47C A59C showed a self-cleavage of 1.35. In the case of A47G A90C, the self-cleavage is reported as 1.68. In the case of A47G A90G, the self-cleavage is reported as 0.56. For A47G A63G, the self-cleavage was 0.44. Variant A47G G84C has a self-cleavage of 0.24. With A47U G115A the self-cleavage was 0.15. For G48A A69G, the self-cleavage was 1.49. In the case of A47U U132G, the self-cleavage is reported as 0.61. With C46U C113A the self-cleavage was 0.01. With G48U A114U the self-cleavage was 0.09. For A47G G106A, the self-cleavage was 0. Work on A47G A69U yielded a self-cleavage of 1.35. A47G A69G gave a self-cleavage of 0.93. Variant A47G U124C has a self-cleavage of 0.32. For A47G A55G, the self-cleavage was 0.59. Work on A47G A55U yielded a self-cleavage of 0.19. For A47U A66G, the self-cleavage was 0.99. G48A A129G showed a self-cleavage of 1.14. Work on A47C A51G yielded a self-cleavage of 1.5. A47G U87A showed a self-cleavage of 1.63. G48U U103C showed a self-cleavage of 0.49. With C46U U100C the self-cleavage was 2.37. A47U A69U gave a self-cleavage of 1.22. A47C A111U showed a self-cleavage of 0.07. In the case of A47C A90G, the self-cleavage is reported as 1.61. G48A A91U gave a self-cleavage of 1.71. With A47C G79A the self-cleavage was 0.14. With G48A A98U the self-cleavage was 2.56. With A47U U130C the self-cleavage was 0.43. G48A A55G showed a self-cleavage of 1.61. G48A A56G gave a self-cleavage of 1.34. With A47U A118C the self-cleavage was 0.48. Variant A47U A111U has a self-cleavage of 0.06. A47G A86G showed a self-cleavage of 1.25. A47G A86C showed a self-cleavage of 1.04. Variant A47G U108A has a self-cleavage of 0.01. A47G G99A showed a self-cleavage of 0.4. A47G G99U gave a self-cleavage of 0.51. For A47G U57C, the self-cleavage was 0.69. In the case of A47G A95G, the self-cleavage is reported as 1.71. With G48U A110G the self-cleavage was 0.2. For A47C A54G, the self-cleavage was 1.5. In the case of C46U U102C, the self-cleavage is reported as 1.84. In the case of C46U U102A, the self-cleavage is reported as 1.59. G48A U72A gave a self-cleavage of 0.2. For A47U A63G, the self-cleavage was 0.8. With G48C A63G the self-cleavage was 1.45. For A47C A60G, the self-cleavage was 1.63. Variant A47U C105U has a self-cleavage of 0.14. For A47U A140G, the self-cleavage was 0.91. Work on A47G U132A yielded a self-cleavage of 1.55. In the case of A47G A114U, the self-cleavage is reported as 0.11. A47G A110G gave a self-cleavage of 0.1. In the case of A47G A110C, the self-cleavage is reported as 0.1. For A47U A68U, the self-cleavage was 0.73. A47G A126G showed a self-cleavage of 1. For A47U A91U, the self-cleavage was 0.51. Work on A47U A91G yielded a self-cleavage of 0.88. C46U U131C gave a self-cleavage of 2.02. With A47G U103C the self-cleavage was 0.34. Variant A47U U120C has a self-cleavage of 0.28. With A47G U133C the self-cleavage was 1.99. In the case of G48A U70C, the self-cleavage is reported as 0.31. A47U A92G showed a self-cleavage of 0.84.
